# According to the DeepSol protein solubility set:
# Assay: soluble on expression in E. coli; label from the status in PepcDB or PDB records
row,Sequence,soluble on expression in E. coli
1,IVPDAQDLGKSYGIRPSFIIAQAALDSDFGEKILANKYHNLFGLLAEPGTPSITLNDSSTGKKQEKQFTHYKSWKYSMYDYLAHIKSGATGKKDSYTIMVSVKNPKTLVQKLQDSGFDNDKKYAKKMTEIIDLYDL,not soluble
2,ASLFPPGLHAIYGECRRLYPDQPNPLQVTAIVKYWLGGPDPLDYVSMYRNVGSPSANIPEHWHYISFGLSDLYGDNRVHEFTGTDGPSGFGFELTFRLKRETGESAPPTWPAELMQGLARYVFQSENTFCSGDHVSWHSPLDNSESRIQHMLLTEDPQMQPVQTPFGVVTFLQIVGVCTEELHSAQQWNGQGILELLRTVPIAGGPWLITDMRRGETIFEIDPHLQERVDKGIETD,soluble
3,MTGQTVECIRSAGVVGAGGAGLPTHIKADASVDTVLVNGASCEPLLMSDPYLIQAHPDIVIRGLLAVMDCTGARRGIICLKGKHAAAMAAVRGAVTREGSGRLEVFELRDFYPAGDEHVLVHEVLGRTVPQGGIPLQIGAVVSNVETLYNVALAMEGAPVTHRYVTVSGEVKRHMVVKVPVGTLVSDVLTFAGGPAITEYKVVDGGPMMGRVLPHTGRPVTKTTSGLLVLPPDHTVVARKIMDPEKVRRITTSICCQCSHCTDLCPRNLLGHSLHPHRLMRVLEGQMHAGTVAREALLCSECGLCEKFACPMMVSPREINAQIKQVLRREGVRWESTGEEPVPHPFRKSRYVATGRLLRRLDLVQYDTHPGYAGEYTPHMVRIPLAQHIGAPAVCVVAPGDTVRTGDLIGEIPEKSMGARVHASISGRVESVEDGMVTIKAC,not soluble
4,MSLNATARQEPADLNDPALRARAVTAARGDAPFDMLITGGRLLDTVTGLIRQADIGLVGALISSVHAPASRTDAVEIIDAAGSILTPGLIDTHMHIESSMVTPAEYASAVLPRGVTTIVWDPHEFGNVHGLDGVRWAIEAARSLPLRMILLAPSCVPSAPGLELAGADFDASMITEMLHSSAVGGVAEVMNMRGVIDGDPRMTDIVNAGLAAGKLVCGHARGLEGADLNAFMASGITSDHELTSGADLLAKLSAGLTIELRGSHDHLLQEFVEVLSGLGHLPPTVTLCTDDVFPDELQEGGGLDDVVRRLVRYGMKPEWAIRAATFNAAQRLKRSDLGLVATGRRADIVLFEDLTEFRARLVISGGRIVARNGSMQVAVQQIDTAPLVNSVKLPPLTENDFRIPAKGERVRVATIDRPRFTQWGEAETEVRDGFIVPPAGSAMISVAHRHGKTDGIPRIGFLTGWGEWRGAFCTTVSHDSHNLTVFGGNAGDMALAANAVISAGGGMAVAKDGRIEAMLPLPLSGLVTDASLKDTALAFAGIRKAMEKIVTWKPPYLVFKACFGATLACNVGPHQTDQGIADVVTGKVLENPVLAVWEGHHHHHH,soluble
5,MLARLVLGTSGRAALGSVEPALGGLKSIWRCSQAFCSTPKGVTYRELKSLLNSKDIMLIDVRNTLEILEQGKIPGSINIPLDEVGEALQMNPVDFKEKYCQVKPSKSDRLVFSCLAGVRSKKAMDTAISLGFNSAQHYAGGWKEWVTYEISEEKQES,soluble
6,MAKRVFIGATGQNCGKTTMSVSLMHLARQKYDRVGFIKPIGPKIEGYNGLTVDMDAILMARTFGLEEDLPLMNPVSLHKNFTRDFLSGKLDCNVLKTKILEAFEILDKKYDFLIIEGAGHGGVGSVIGLSNACVAHTLNAPVIIVTDSGIGSSIDAVHLNLALYEKEDADVRMLLVNKLRADKRESILSFLGKGFPGRPLKISGGFNYSPILANPTLSHIGKLLNLPVHGDPDGQSRIIHHIHLGAASAQRVVDALQESTLIVITSSRDELIVTLSSLYHIPAFREKIVGLVIAGHIPASEISQQILDDSNIPYIRVHDSTANVFTTLMEDVAKITAEDQEKLNWIRANAENEIDFEAIDALLLEHHHHHH,not soluble
7,MSLEASLLKKNQSIELTIEDLTHDGSGVGKIDGYPFFIPNTLPGEKVTAKIIKLNKNYGFARMENIETVSANRVEPPCAVYSKCGGCSLQHLSYDGQLEFKRNQVEETMKRIGKLNVEVPETLGMENPWRYRNKSQVPVGFVNGKLTAGFYQKRSHAIIDMSTCLIHNEQGDFAVQKTREILAKYGTEPYDEQTGKGDIRHIMTRFAHTTGQLMIVLVTTKERMPFKEEIVRDLVEQLELTSIVQNINPHKTNVIFGDRTKTLWGKDIIEDTIHGIRFAISARSFYQVNPLQTEVLYQQAIDAAELTGEETVIDAYCGIGSISLCLAKKAKHVYGVEIVDQAIQDARANAELNELANTTFETGKAEEVIPSWYKAGIVADVLVVDPPRKGCDEKLLETILAMKPKKVVYVSCNPGTLARDMKILTDGGYVAKKVQPVDMFPMTTHIEAVTVLHLNEGHHHHHH,soluble
8,LKVREDENNPFYFRSSNSFQTLFENQNGRIRLLQRFNKRSPQLENLRDYRIVQFQSKPNTILLPHHADADFLLFVLSGRAILTLVNNDDRDSYNLHPGDAQRIPAGTTYYLVNPHDHQNLKMIWLAIPVNKPGRYDDFFLSSTQAQQSYLQGFSHNILETSFHSEFEEINRVLFGEEEEQRQQEGVIVELSKEQIRQLSRRAKSSSRKTISSEDEPFNLRSRNPIYSNNFGKFFEITPEKNPQLRDLDIFLSSVDINEGALLLPHFNSKAIVILVINEGDANIELVGIKEQQQKQKQEEEPLEVQRYRAELSEDDVFVIPAAYPFVVNATSNLNFLAFGINAENNQRNFLAGEKDNVVRQIERQVQELAFPGSAQDVERLLKKQRESYFVDAQPQQKEEGSKGRKGPFPSILGALY,soluble
9,MTPIHVVGIGLDGLPGLAAAVQQIIDSATLLVGSDRHLQLIPQGDTPRLSLGNFNASLKAIQTHLDTTANPQVVILTSGDPLFYGLGRWLLEVFAPDQLTFHPHLSAVQLAFSRLKLPWQDAVIYSAHGRDLAGLVPLLQRGVEKIAIYTDGEANIAAISRLYQALHIPVTYRAWVCQALGSAEEAILPWDLAQPVTALPPVHPLNLVVLLRQPQRLPPREQPIVGLGDDQFFTFADRPSLMTKREVRVLVLAELALTSTVEIVWDIGAGTGSVAVEIARLAPQATIYAIEKTAIGFQLIERNRRAFGLANLIPLQGTAPQCLRDLPPPDRVFIGGSGAQLLANLDYCWSHLNAGGRLVLAIATLEHQGQVLHWCQTHQINPQVLQVQLSRSVPLGQGHRLHPLNPVTLMTLTQGLEHHHHHH,not soluble
10,GSHMTETVPLILLVPKSRREDLEKAQLAERLRSQFFIDYGVRLPEVLLRDGEGLDDNSIVLLINEIRVEQFTVYFDLMRVVNYSDEVVSFGINPTIHQQGSSQYFWVTHEEGEKLRELGYVLRNALDELYHCLAVTLARNVNEYFGIQETKHMLDQLEAKFPDLLKEVLRHATVQRISEVLQRLLSERVSVRNMKLIMEALALWAPREKDVINLVEHIRGAMARYICHKFANGGELRAVMVSAEVEDVIRKGIRQTSGSTFLSLDPEASANLMDLITLKLDDLLIAHKDLVLLTSVDVRRFIKKMIEGRFPDLEVLSFGEIADSKSVNVIKTI,soluble
11,MDYTEESAQIPEMAEKLGIPTSRKETKTLELPVSIDFRNWCSPIEDQMDLGSCTAHAGVGVVEYFERRAFGKHIDGSRFFVYKTTRNLMGVKGDTGAWLRNTMGALALCGVPPEKYFPYTSRKTPGPDGEPTFDDEPSSFVYSLADNFEALNYFCHDPQGMNLPPEDVILSVKKYLAAGIPSMFGFYGFPSFKDTDVKGGIPFPGPDERSIWGHAVVAVGYDDNMKIRNTLSNKETTGAFLIRNSWGTAWGDKGYGWLPYEYALNKFALDFWSLISMKWVETGNFGLELESSRSRARETLSRDMPLPHALEHHHHHH,not soluble
12,SARKSNLPVLLVPFLLCQALVRCSSPLPLVVNTWPFKNATEAAWRALASGGSALDAVESGCAMCEREQCDGSVGFGGSPDELGETTLDAMIMDGTTMDVGAVGDLRRIKNAIGVARKVLEHTTHTLLVGESATTFAQSMGFINEDLSTSASQALHSDWLARNCQPNYWRNVIPDPSKYCGPYKPPGILKQDIPIHKETEDDRGHDTIGMVVIHKTGHIAAGTSTNGIKFKIHGRVGDSPIPGAGAYADDTAGAAAATGNGDILMRFLPSYQAVEYMRRGEDPTIACQKVISRIQKHFPEFFGAVICANVTGSYGAACNKLSTFTQFSFMVYNSEKNQPTEEKVDCI,soluble
13,AGMSLTQVSGPVYVVEDNYYVQENSMVYFGAKGVTVVGATWTPDTARELHKLIKRVSRKPVLEVINTNYHTDRAGGNAYWKSIGAKVVSTRQTRDLMKSDWAEIVAFTRKGLPEYPDLPLVLPNVVHDGDFTLQEGKVRAFYAGPAHTPDGIFVYFPDEQVLYGGCILKEKLGNLSFADVKAYPQTLERLKAMKLPIKTVIGGHDSPLHGPELIDHYEALIKAAPQSS,soluble
14,MNISLSRVHFPVTTLGPGQRLGLWFQGCSIRCAGCISADTWGPGKHPLPLAQVLDDLQPWLARAEGITLSGGEPFDQPEALLALLRGLRERTGVDILVYSGHSLETLQPLLQQAEGLLDALICDPFEQQQAQTLVLRGSDNQRLIFLTELGRQRLSTYQRPLHHEDRALDVMFDDDGSVWMAGIPRRDDVLRLRDLLHDQGHQLQISAHTSRRRLEHHHHHH,not soluble
15,MCGVSLSVIIETLYFACRFRMVEKFLNQSVIWCRSGALRHCRTCGRGRAADTAFTLGDGSKRMGGCVQKEKNEAQKGEKGYRFRLFTGK,not soluble
16,NQHLTILRNVSDRKRMEKELRESELKFRKVFNGSMDGNVLFDNQYRIIDANPLASHILGLSHEEIKQHSLLDIISAYEIENLASPARQINFDEMDNEIPFLLSSGDNRKLEFSFKRNIIQ,not soluble
17,MSLKSILIMGGSDFIGSALAKRLIKCGYQIDILTNGKKEIDYNGFKEHLICDRKVRKDMENIITGRKYDYIYDMTAYTKEDVSNLIDFISMDNLKKYIVLSAGAVYKDSGRNIKEENEKGENENWGKYGLNKKEAEDFIINSPIPYIIIRPTYIYGENNNLYREYYFFEKIEKNEKIPVPKGKQVSNQFIYIGDLVKVLESIMKNPHVREAYNVTNPQLISWDDLIYTCGEIIGKEPIIKYVDMEKVEFRERTYFPFRNIDFNLDINKLIEHGLYIPNVLLKEGLTATYKWFSANKPKMHDRKMNKVESVMQIEGHHHHHH,soluble
18,MARRRRAEVRQLQPDLVYGDVLVTAFINKIMRDGKKNLAARIFYDACKIIQEKTGQEPLKVFKQAVENVKPRMEVRSRRVGGANYQVPMEVSPRRQQSLALRWLVQAANQRPERRAAVRIAHELMDAAEGKGGAVKKKEDVERMAEANRAYAHYRW,soluble
19,MNELFLSELKSADKDLLQKLVLIEEHVFADSAQEPVQTEASLDSLELIISQCIAIISEIESPLEKAEALLNELYFQHLFIDRYQTRWPISAYSVAKGLNQRAMSPVVKAALVKEIITACGFETDLVFIPNKIMVRLCCDEQYAIIFDAITGESLDWTELDVRLDELDGDPGEQELKAIDDSVALVEHLSALKNVLIHEQAFDKALTCVDVILSLNPDDPLQRRDRGFLLHQLDCFKVAVDDYRYFVEQCPKDPAAKILKIQLEKIDVGNNVLHLEHHHHHH,soluble
20,SLGAGQPLGGYAEDLEGRQADLPKYSRANVRIVFAAVFPESNVYQGGEGYPTPSSSRLLLLDQVKTYYALSSIHGVEIIESWRSAQEVLEAPRWRLGLLLHLEGADALADILDLELLHRLGFRSLGLTWNHDNRWAASCKTRRDYGLTQSGEDLVKKAAELGVIIDLAHASDKTVADAASASPKPVIVSHANFRWKVDSPRNVGEEAVEAVVSKGGVIGYSLISTLITRGRHPTLHDVASQMAEFVEVYGHRHLAIGTDYHGLLDIRPPTGLESIDRLPRLLEALADAGLSDRQIEAIAYGNIARVIREVLPES,not soluble
21,MKRTGILLVNLGTPKDSSKTEVRKYLKTFLSDRRVIKIHPIIWKPILNGIILNIRPKKSAKLYQKICTENGFPLLEYTEKQMENLKNICPEVEVTIGMSYSEPSIETALDTLLSKEIEELNVIPMYPQYSGTTVGSVFDSVMNYFIKSDRIVDIKFIRSFYNNPQYIDYFSKKINEALNESPIDAIVFSYHGIPMSYVKDGDNYPKECTK,not soluble
